The target of assay [1] is T1, recombinant human osteopontin (R&D Systems #1433-OP/CF, carrier free) (human, UniProt P10451 17-314, biotinylated in the capture ELISA, on the SET plates and on the Biacore streptavidin chip). The assay can be described thus: cell-based or functional assay.
Assay [2] has as its target T1, recombinant human osteopontin (R&D …). The assay can be described thus: solution equilibrium titration (SET), ECL, Fab. Here is the method:
Affinity determination in solution was basically performed as described in the literature (Friguet et al., J. Immunol. Methods 77:305 (1985)). In order to improve the sensitivity and accuracy of the SET method, it was transferred from classical ELISA to ECL based technology (Haenel et al., Anal. Biochem. 339:182-184 (2005)). 1 mg/mL goat-anti-human (Fab)₂ fragment specific antibodies (Dianova) were labeled with MSD Sulfo-TAG™ NHS-Ester (Meso Scale Discovery, Gaithersburg, Md., USA) according to the manufacturer's instructions. The experiments were carried out in polypropylene microtiter plates and PBS, pH 7.4, with 0.5% BSA and 0.02% Tween 20 as assay buffer. Unlabeled osteopontin was diluted in a 2n series, starting with a concentration at least 10 times higher than the expected KD. Wells without antigen were used to determine Bₘₐₓ values; wells with assay buffer were used to determine background. After addition of e.g. 25 pM Fab (final concentration in 60 μL final volume), the mixture was incubated over night at room temperature. The applied Fab concentration was similar to or below the expected KD.
Streptavidin coated MSD plates were blocked over night with 3% BSA in PBS (50 μL/well), subsequently the blocking solution was discarded and the plates were coated with […] biotinylated osteopontin in assay buffer (30 μL/well) for 1 hour. After washing the coated MSD plates with assay buffer, the equilibrated samples were transferred to those plates (30 μL/well) and incubated for 20 minutes. After washing, 30 μL/well of the MSD Sulfo-tag labeled detection antibody (goat anti-human (Fab)₂) in a final dilution of 1:1000 was added to the MSD plate and incubated for 30 minutes on an Eppendorf shaker (700 rpm).

Assay [3] has as its target T2, recombinant mouse osteopontin (R&D Systems #441-OP/CF, carrier free) (mouse, UniProt P10923 17-294, biotinylated in the capture ELISA).
T2 construct: Bought protein; also called mOPN; mouse OPN
The assay can be described thus: Biacore (SPR), Fab over amine-coupled murine OPN on CM5 chip. The method, then: (§1) Binding to immobilized antigen was analyzed using the BIAcore3000 instrument (Biacore, Sweden).
(§2) For antigen immobilization, two alternative strategies were used: in the case of human OPN, biotinylated human OPN was bound to a Streptavidin coated sensor chip (Biacore, Sweden) to a binding level of approximately 300 RU. The reference flow cell was coated with a similar amount of biotinylated HSA. In the case of murine OPN, the antigen was immobilized covalently using standard EDC-NHS amine coupling chemistry. CM5 chips (Biacore, Sweden) were coated with murine OPN in 10 mM acetate buffer, pH 3.5 to a level of 400 RU. For the reference flow cell, a respective amount of HSA was used. Regeneration was accomplished with two injections of 10 mM Gly/HCl, pH 1.5 (5 μL) and 50 mM phosphoric acid (5 μL), respectively. Kinetic measurements were done in Dulbeccos PBS, pH 7.4 (Gibco) with 0.05% Tween 20 at a flow rate of 20 μL/min using a 2n serial dilution row of Fab samples. The Fab concentrations ranged from 15.6 to 500 nM. The injection time for each concentration was 1 minute, and the dissociation time was set to a minimum of 3 minutes. A blank injection of running buffer was used for double referencing. All sensorgrams were fitted globally using BIA evaluation software 3.2 (Biacore, Sweden), to determine association and dissociation rate constants (kₒₙ and koff), which were used to calculate the affinity (KD=koff/kₒₙ).
(In SPR one partner is held on a chip, and binding of the other changes the refractive index at the surface.)

Assay [4] deals with T1, recombinant human osteopontin (R&D …). The assay can be described thus: Biacore (SPR), Fab over biotinylated human OPN on streptavidin chip. The method, then: as §1, §2
Assay [5] shares this target. The assay can be described thus: cell-based or functional assay. This is another data set of the same source.
Assay [6] shares this target. The assay can be described thus: Biacore 3000 (SPR), IgG flowed over amine-coupled human Osteopontin; avidity, 1:1 fit. Here is the method: (§3) Binding avidity of monoclonal antibodies to Osteopontin was determined using Biacore analysis (General Electric Healthcare, Biacore 3000). To obtain nominal avidity measurements, human Osteopontin (R&D Systems, 1433-OP-050/CF) and mouse Osteopontin (R&D Systems, 441-OP-050/CF) were immobilized on a biosensor chip using standard amine coupling and various concentrations of monoclonal antibodies (MOR6990, MOR6991 and MOR6993) were flowed across the surface at 25.0° C. in 10 mM HEPES pH 7.4, 150 mM NaCl, 0.005% P20. The binding data were fit globally to a simple one-to-one binding model.

Assay [7] has as its target T2, recombinant mouse osteopontin (R&D …). The assay can be described thus: Biacore 3000 (SPR), IgG flowed over amine-coupled mouse Osteopontin; avidity, 1:1 fit. Here is the method:
as §3

Assay [8] has as its target T1, recombinant human osteopontin (R&D …). The assay can be described thus: protein ELISA, Fab on human OPN protein. (In general: In an ELISA, binding on a coated surface is turned into a signal by an enzyme label.)
Assay [9] addresses T2, recombinant mouse osteopontin (R&D …). The assay can be described thus: protein ELISA, Fab on mouse OPN protein.
For assay [10], the target named is T3, SPP1 peptide comprising functional domains of human OPN (27 aa) (human).
T3 construct: Target of the 'Peptide ELISA, hOPN' columns; also called hOPN peptide; SSP1 peptide
The assay can be described thus: peptide ELISA, Fab on human SPP1 peptide.

The target in assay [11] is T4, SPP1 peptide comprising functional domains of mouse OPN (27 aa) (mouse).
T4 construct: Target of the 'Peptide ELISA, mOPN' columns; also called mOPN peptide; SSP1 peptide
The assay can be described thus: peptide ELISA, Fab on mouse SPP1 peptide.

Assay [12] addresses T1, recombinant human osteopontin (R&D …). The assay can be described thus: Biacore (SPR), Fab over immobilized human OPN.
Assay [13] addresses T2, recombinant mouse osteopontin (R&D …). The assay can be described thus: Biacore (SPR), Fab over immobilized mouse OPN. Here is the method:
as §2

Read-outs that look alike come from different tables or passages of the source.

T2 sequence (P10923 17-294 limits assumed): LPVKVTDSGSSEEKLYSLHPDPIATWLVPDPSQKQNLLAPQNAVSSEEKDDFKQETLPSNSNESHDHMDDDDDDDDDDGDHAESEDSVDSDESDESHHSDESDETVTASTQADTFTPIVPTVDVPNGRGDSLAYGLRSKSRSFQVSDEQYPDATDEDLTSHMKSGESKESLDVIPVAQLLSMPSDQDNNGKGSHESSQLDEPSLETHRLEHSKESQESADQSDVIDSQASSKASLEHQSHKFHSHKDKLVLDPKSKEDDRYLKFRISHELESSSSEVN
T1 sequence (P10451 other isoform, or with tags, fused parts or gaps limits assumed): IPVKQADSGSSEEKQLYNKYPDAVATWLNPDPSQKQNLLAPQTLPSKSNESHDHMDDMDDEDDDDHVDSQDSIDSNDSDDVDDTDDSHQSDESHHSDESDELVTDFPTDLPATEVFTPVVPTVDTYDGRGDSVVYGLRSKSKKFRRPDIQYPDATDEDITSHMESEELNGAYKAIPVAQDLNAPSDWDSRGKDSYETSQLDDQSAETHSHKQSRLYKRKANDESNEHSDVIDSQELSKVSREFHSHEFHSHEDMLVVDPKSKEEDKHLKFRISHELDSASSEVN

B1: HuCAL GOLD Fab 6993 (MOR-6993 Fab) (Fab, V domains shown)
VH: QVQLVESGGGLVQPGGSLRLSCAASGFTFTTSSMHWVRQAPGKGLEWVSRISSHGSNTYYADSVKGRFTISRDNSKNTLYLQMNSLRAEDTAVYYCARDMYRGVYGFALWGQGTLVTVSS
VL: DIELTQPPSVSVAPGQTARISCSGDAIRNYYVHWYQQKPGQAPVLVIYEDSDRPSGIPERFSGSNSGNTATLTISGTQAEDEADYYCQSYDKSNVVFGGGTKLTVL
notes: Fab format made in E. coli
B1: the “Adhesion Assay Mn2+-dependent hOPN, IC50” value in assay [1] came to 29.8 nM. Moreover, the Kd in assay [2] was determined as 0.2 nM; in assay [3], 3980 nM; in assay [4] it was 70 nM.

B2: MOR-6993 (full length human IgG2) (antibody, V domains shown)
VH: QVQLVESGGGLVQPGGSLRLSCAASGFTFTTSSMHWVRQAPGKGLEWVSRISSHGSNTYYADSVKGRFTISRDNSKNTLYLQMNSLRAEDTAVYYCARDMYRGVYGFALWGQGTLVTVSS
VL: DIELTQPPSVSVAPGQTARISCSGDAIRNYYVHWYQQKPGQAPVLVIYEDSDRPSGIPERFSGSNSGNTATLTISGTQAEDEADYYCQSYDKSNVVFGGGTKLTVLG
notes: Human IgG2, lambda light chain; made in HKB11 cells
Take B2: the “Adhesion Assay Mn2+-dependent hOPN, IC50” value in assay [5] worked out at 0.4 nM. Further, in [6], the Kd was found to be 0.752 nM; the koff (in general, the rate constant with which the complex falls apart) was 0.00462 s⁻¹; the on-rate (kon) (as a rule, the rate constant with which the complex forms) is 6.14e+06 M⁻¹ s⁻¹. In assay [7], the Kd is 0.747 nM, the off-rate constant (koff) was determined as 0.00496 s⁻¹ and the kon was determined as 6.64e+06 M⁻¹ s⁻¹.

B3: MOR-6990 (full length human IgG2) (antibody, V domains shown)
VH: QVQLVESGGGLVQPGGSLRLSCAASGFTFSNYVMHWVRQAPGKGLEWVSSIFGSGSDTYYADSVKGRFTISRDNSKNTLYLQMNSLRAEDTAVYYCARSASSGFGFAGYGIDSWGQGTLVTVSS
VL: DIELTQPPSVSVAPGQTARISCSGDSLRYYYAHWYQQKPGQAPVLVIYDDNKRPSGIPERFSGSNSGNTATLTISGTQAEDEADYYCQSWDLFHSSVFGGGTKLTVLG
notes: as for B2
B3: the “Adhesion Assay Mn2+-dependent hOPN, IC50” value in assay [5] was 0.4 nM. Also, in assay [6], the Kd was 20.9 nM, the koff is 0.00203 s⁻¹ and the on-rate (kon) came out at 96900 M⁻¹ s⁻¹. For the same molecule, in assay [7], the Kd came to 4.7 nM, the dissociation rate constant (koff) is 0.000864 s⁻¹ and the kon was found to be 183000 M⁻¹ s⁻¹.

B4: HuCAL GOLD Fab 6990 (MOR-6990 Fab) (Fab, V domains shown)
VH: QVQLVESGGGLVQPGGSLRLSCAASGFTFSNYVMHWVRQAPGKGLEWVSSIFGSGSDTYYADSVKGRFTISRDNSKNTLYLQMNSLRAEDTAVYYCARSASSGFGFAGYGIDSWGQGTLVTVSS
VL: DIELTQPPSVSVAPGQTARISCSGDSLRYYYAHWYQQKPGQAPVLVIYDDNKRPSGIPERFSGSNSGNTATLTISGTQAEDEADYYCQSWDLFHSSVFGGGTKLTVL
notes: Fab format made in E. coli
Consider B4, for which, in assay [1], the “Adhesion Assay Mn2+-dependent hOPN, IC50” value came to 157 nM. Further, the results for the Kd in assay [2], in assay [3] and in assay [4] were 35 nM, 2270 nM and 140 nM, respectively.

B5: MOR-10475 Fab (Fab, V domains shown)
VH: QVQLVESGGGLVQPGGSLRLSCAASGFTFSNYVMHWVRQAPGKGLEWVSSIFGSGSDTYYADSVKGRFTISRDNSKNTLYLQMNSLRAEDTAVYYCARSASSGFGFAGYGIDSWGQGTLVTVSS
VL: DIELTQPPSVSVAPGQTARISCSGDSLRYYYAHWYQQKPGQAPVLVIYDDNKRPSGIPERFSGSNSGNTATLTISGTQAEDEADYYCQAWDLINSHVFGGGTKLTVL
notes: Only variable domains are tied to the Fab
Turning to B5, the EC50 (commonly the concentration that produces a half-maximal response) was 0.6 nM in assay [8], 0.6 nM in assay [9], 0.7 nM in assay [10] and 0.7 nM in assay [11]. The values for the Kd in assay [12] and in assay [13] were 80 nM and 41 nM, respectively.

B6: HuCAL GOLD Fab 6991 (MOR-6991 Fab) (Fab, V domains shown)
VH: QVQLVESGGGLVQPGGSLRLSCAASGFTFNNYAVSWVRQAPGKGLEWVSGISYGGSNTYYADSVKGRFTISRDNSKNTLYLQMNSLRAEDTAVYYCARTLGGDFDHWGQGTLVTVSS
VL: DIVLTQPPSVSGAPGQRVTISCSGSSSNIGSNYVNWYQQLPGTAPKLLIYGNSKRPSGVPDRFSGSKSGTSASLAITGLQSEDEADYYCQSFTQMLLVFGGGTKLTVL
notes: Fab format made in E. coli
B6: the “Adhesion Assay Mn2+-dependent hOPN, IC50” value in [1] came out at 264 nM. Besides, the values for the Kd in [2], in assay [3] and in assay [4] were 3 nM, 1390 nM and 300 nM, respectively.

B7: MOR-6991 (full length human IgG2) (antibody, V domains shown)
VH: QVQLVESGGGLVQPGGSLRLSCAASGFTFNNYAVSWVRQAPGKGLEWVSGISYGGSNTYYADSVKGRFTISRDNSKNTLYLQMNSLRAEDTAVYYCARTLGGDFDHWGQGTLVTVSS
VL: DIVLTQPPSVSGAPGQRVTISCSGSSSNIGSNYVNWYQQLPGTAPKLLIYGNSKRPSGVPDRFSGSKSGTSASLAITGLQSEDEADYYCQSFTQMLLVFGGGTKLTVLG
notes: as for B2
Regarding B7, the “Adhesion Assay Mn2+-dependent hOPN, IC50” value in assay [5] turned out to be 0.6 nM. Further, in assay [6], the Kd turned out to be 19 nM, the koff turned out to be 0.00933 s⁻¹ and the on-rate constant (kon) came out at 491000 M⁻¹ s⁻¹.

The values are drawn from patent US20110165170A1 (Pfizer, published 2011).
